Measurements reported in US20190367619A1 (ARGENX, published 2019).
Where a chain is given by its changes, count along the chain named.

B1: 2B11 scFv-human Fc (Fc fusion)
scFv: QVQLQESGPGLVKPSQTLSLTCTVSGGSITTNYYYWSWIRQPPGKGLEWMGAIAYSGSTYYSPSLKSRTSISRDTSKNQFTLQLSSVTPEDTAVYYCARAPYGISREYDYWGQGTQVTVSSGGGGSGGGGSGGGGSHSAVTQPSAVSVSLGQTARITCQGGKFGRYYASWYQQKPGQAPVLVIYKDSERPSGIPERFSGSSSGDTATLSISGAQAEDEADYFCQSGRSSDNAVFGGGTHLTVL
notes: about 100 kDa on SDS-PAGE; also called 2B11 ScFv-hFc; not shown: CH2-CH3 constant domains of human IgG1 (vector pUPEX50)
B2: 2C07 scFv-human Fc (Fc fusion)
scFv: ELQLVESGGGLVQPGGSLRLSCAASGFTFSSYAMSWVRQAPGKGLEWVSNINSGGGSTGYADSVKGRFTISRDNAKNTLYLQMNSLKPEDMAVYYCAKYLRTYYPNAAFGMDYWGKGTLVTVSSGGGGSGGGGSGGGGSQAVLTQPSAVSVSLGQTARITCQGGNFGRYYASWYQQKPGQAPVLVIYRDSERPSGIPERFSGSSSGDTATLTISGAQAEDEADYYCQSGRSSDNAVFGGGTHLTGL
notes: about 100 kDa on SDS-PAGE; also called 2C07 ScFv-hFc; not shown: CH2-CH3 constant domains of human IgG1 (vector pUPEX50)
B3: 4H10 scFv-human Fc (Fc fusion)
scFv: QVQLVESGGGLVQPGGSLRLSCAASGFTFDDYAMSWVRQAPGKGLEWVSAISWNGGSTYYAESMKGRFTISRDNAKNTLYLQMNSLKSEDAAVYYCAKDLSASGSYYHTFGSWGQGTQVTVSSGGGGSGGGGSGGGGSQAGLTQPPSVAGTLGKTVTISCAGTSSDVGYGDYVSWYQHIPGTAPKLLIYKVKTRASGIPDRFSGSKSGNTASLTISGLQSGDESDYYCASYKNGGTAVFGGGTHLTVL
notes: about 100 kDa on SDS-PAGE; also called 4H10 ScFv-hFc; not shown: CH2-CH3 constant domains of human IgG1 (vector pUPEX50)
B4: 4G05 scFv-human Fc (Fc fusion)
scFv: QLQVVESGGGLVQTGGSLTLSCTTSGFTFSRYWMIWVRQAPGKGLEWVSSIYNDGGNTYYADSVKGRFTISRDNSENTLYLQMNSLKSEDTAVYYCAKLKAAYYGMDYWGKGTLVTVSSGGGGSGGGGSGGGGSSSALTQPSAVSVSLGQTARITCQGANLGRYYGIWYQQKPGQAPVQVIYGDSNRPSGIPERFSGSSSGGTATLTISGAQAEDEADYYCQSYESSTSPVFGGGTHLTVL
notes: about 100 kDa on SDS-PAGE; also called 4G05 ScFv-hFc; not shown: CH2-CH3 constant domains of human IgG1 (vector pUPEX50)
B5: 4B10 scFv-human Fc (Fc fusion)
scFv: QLQLVESGGGLVQPGGSLRLSCAASGFTFSNYWMYWVRQAPGKGLEWVSAIDVGGGTTDYAGSVKGRFTISRDNTKSTVYLQMNTLKPEDTALYYCLRGGSYYGGMDYWGKGTLVTVSSGGGGSGGGGSGGGGSQSALTQPSAVSVSLGQTARITCQGAKLGRYYGIWYQQKPGQAPVQVIYGDSNRPSGIPERFSGSSSGGTATLTISGAQAEDEADYYCQSYESSTSPVFGGGTHLTVL
notes: about 100 kDa on SDS-PAGE; also called 4B10 ScFv-hFc; not shown: CH2-CH3 constant domains of human IgG1 (vector pUPEX50)
B6: 2E11 scFv-human Fc (Fc fusion)
scFv: EVQLVESGGGLVQPGGSLRLSCAASGFTFSSYAMSWVRQAPGKGLEWVSPINSGSDSASYVDSVKGRFTISRDNAKNTLYLQMNSLKPEDTAVYYCAKARTSVVAGGMDYWGKGTLVTVSSGGGGSGGGGSGGGGSQSALTQPSAVSVSLGQTARITCQGGKFGSYYVSWYQQKPGQAPVMVIYKDNERPSGIPERFSGSSSGSTSTLTISGAQAEDEGTYYCQSGSSSDNIVFGGGTELTVF
notes: about 100 kDa on SDS-PAGE; also called 2E11 ScFv-hFc; not shown: CH2-CH3 constant domains of human IgG1 (vector pUPEX50)
B7: VHH clone 1D06 (VHH, not shown: large carriers)
VHH: QLQLVESGGGLVQPGGSLRLSCAASENSVSTYAMGWFRQAPGKEREFVAAITRAGGNTYNADSVKGRFTISRDNAENTIYLQMNSLKPEDTAVYSCAAGPRYSTISTMFPYWGQGTQVTVSS
notes: Positive control from the previous human-specific panel; also called 1D6
B8: VHH clone 14E02 (VHH)
VHH: QVQLVESGGGLAQAGGSLRLSCVASGRAAGTYSMAWFRQAPGKEREFVAAITWAGGYTYGADSEKGRFTISRDNAKNTVYLQMNSLKPEDTAVYSCAGGRLFTSQSSAYQYWGQGTQVTVSS
notes: Purified VHH-Myc-His from E. coli; not shown: Myc and His tags of the phagemid vector
B9: VHH clone 13H07 (VHH)
VHH: QLQLVESGGGLVQAGGSLRLSCVASGRTFSTYAMDWFRQAPGKEREFVAAISWHSAIYYADAVKGRFTISRDNGKNTMYLQMNNLKPEDTAVYFCAAALRYRFNPSAMEYWGKGTLVTVSS
notes: as for B8
B10: VHH clone 14E10 (VHH)
VHH: ELQLVESGGGLVQAGGSLRLSCAASEGTFRPYAMGWFRQAPRKEREFVAVISLSGAYTYNVNAVKGRFTISRDNAKNTVYLQMNSLTPEDTAIYYCGASRTYYRTDESTYEYWGQGTQVTVSS
notes: as for B8
B11: VHH clone 14F10 (VHH)
VHH: EVQLVESGGGLVQAGDSLRLSCAASGRTFSGYAVGWFRQAPGKEREFVTIISWNGGTHYADSVKGRFAISRDNAKNTVYLQMNNLKPEDTAVYYCAVSPKYYFSPETYNYWGQGTQVTVSS
notes: as for B8
B12: VHH clone 13E07 (VHH)
VHH: ELQVVESGGGLVQAGDSLRLSCAVSGRTFSSYHMMWFRQAPGKEREFVAAIAWRGGTYCANSVKGRCTISRDNAKDTVYLQMNSLKPEDTAVYFCAASLRYVFDPSAMDYWGKGTLVTVSS
notes: as for B8
B13: VHH clone 13D12 (VHH)
VHH: B12 VHH with E1Q, V4L, V24A, I51L, K75Q, L99R, G112A
notes: as for B8

molecular target: T1, TEV-cleaved wild-type recombinant human galectin-10 (soluble, in Fab complexes, or as recombinant galectin-10 … (human, UniProt Q05315 1-142)); assay: cell-based or functional assay
T1 sequence: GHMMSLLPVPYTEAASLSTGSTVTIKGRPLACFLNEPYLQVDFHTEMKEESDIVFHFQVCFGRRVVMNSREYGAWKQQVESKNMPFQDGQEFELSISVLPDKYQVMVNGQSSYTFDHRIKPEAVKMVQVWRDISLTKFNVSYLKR

Binder	100% Solubilization of CLC (Conc uM) [µM]
B1	5.04
B2	6.86
B3	6
B4	4.36
B5	6.14
B6	4.36

Molecular target: T2, human galectin-10-His (recombinant human galectin-10 with TEV-cleavable N-terminal His-tag) (human)
T2 construct: SEC-MALLS: dimer in solution; also called Gal10-His; humanGal10-His
T2 chain: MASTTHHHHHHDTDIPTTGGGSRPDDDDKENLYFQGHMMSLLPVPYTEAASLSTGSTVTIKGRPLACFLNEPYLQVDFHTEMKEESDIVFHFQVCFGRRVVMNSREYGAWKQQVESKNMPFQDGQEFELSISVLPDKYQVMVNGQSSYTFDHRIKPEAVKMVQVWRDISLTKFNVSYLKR
Assay: ELISA, scFv-hFc on coated galectin-10-His (0.2 ug/mL)
Procedure: In a similar setup to that used during the initial screening, the relative binding properties of the 12 scFv-human Fc clones were analyzed by ELISA. Briefly, a Maxisorp plate was coated with galectin-10-His at 0.2 μg/mL and blocked with casein, before being incubated with a serial dilution of the scFv-human Fc fusion molecules. After several washing steps, detection of the bound scFv-human Fc was carried out with an anti-human Fc-HRP antibody. Absorbance was measured at 450 nm (reference at 620 nm) with Tecan instrument. Finally, the raw data (OD values) were plotted on GraphPad Prism 7.01. The EC50 value of each compound was calculated with a non-linear regression (log(agonist) vs. response Variable slope (four parameters)).

Binder	Bmax (OD values) [OD]	EC50 [nM]
B1	2.43	0.08
B2	2.89	0.05
B3	1.3	0.2
B4	3.03	0.09
B5	1.28	0.08
B6	1.43	0.14

Molecular target: T3, human galectin-10-His (human)
T3 construct: Whether the last M of the tag is the start Met of galectin-10 is not clear; also called human Gal10-HIS; humanGal10-His
T3 chain: T2 chain
Assay: ELISA, Gal10-His coated at 1 ug/mL, VHH titrated, anti-Myc-HRP
Procedure: (§1) The binding capacity of the 15 VHH clones was analysed by ELISA. Briefly, a Maxisorp plate was coated overnight with human or cynomolgus WGS or YRT isoforms galectin-10-His at 1 μg/mL and blocked with PBS 1% casein, before being incubated with a serial dilution of the VHH (from 4 μM, dilution 1/3, 12 points of dilutions). […] Absorbance was measured at 450 nm (reference at 620 nm) with Tecan instrument. Finally, the raw data (OD values) were plotted on GraphPad Prism 7.01. […] As a positive control, clone 1D06 from the previous human specific panel was included.

Binder	Bmax (OD values) [OD]	EC50 [nM]
B7	1.2	90.7
B8	0.7	–
B9	1.5	180
B10	0.5	–
B11	0.5	–
B12	1.1	–
B13	0.8	–

Molecular target: T4, cynomolgus galectin-10-His, WGS isoform (cynomolgus)
T4 construct: not shown: His tag
T4 chain: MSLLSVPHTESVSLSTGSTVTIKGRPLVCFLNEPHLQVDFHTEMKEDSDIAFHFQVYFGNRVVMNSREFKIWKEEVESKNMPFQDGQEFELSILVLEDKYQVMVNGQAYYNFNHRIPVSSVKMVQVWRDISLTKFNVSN
Assay: as above
Procedure: as §1

Binder	Bmax (OD values) [OD]	binding result	EC50 [nM]
B7	0	no binding (tested: up to 4 uM VHH)	–
B8	1.8	–	–
B9	2.7	–	15.6
B10	1.4	–	–
B11	2.6	–	60.4
B12	2.3	–	371
B13	1.3	–	–

Molecular target: T5, cynomolgus galectin-10-His, YRT isoform (cynomolgus)
T5 construct: not shown: His tag
T5 chain: T4 chain with K23E, G24A, L31F, F69Y, K70R, I71T, S92R
Assay: as above
Procedure: as §1

Binder	Bmax (OD values) [OD]	binding result	EC50 [nM]
B7	0	no binding (tested: up to 4 uM VHH)	–
B8	2.1	–	–
B9	3.1	–	1.3
B10	2.7	–	15.8
B11	3	–	3
B12	2.4	–	–
B13	2.4	–	119

Molecular target: T2, human galectin-10-His (recombinant …)
Assay: SPR Biacore T3000, scFv-hFc captured by anti-human Fc, galectin-10-His as analyte
Procedure: In order to determine the binding properties (on-rate/off-rate) of the scFv-human Fc panel, their binding capacity to galectin-10 was analyzed on Biacore T3000. For this purpose, a capture approach was set up. A CM5 Chip was coated with polyclonal anti-human Fc at 8000 RU, then a fixed concentration of the scFv-human Fc panel (1.5 μg/mL), diluted in HBS-EP pH7.4, were captured to reach a binding signal around 150 RU. Finally, a serial dilution of galectin-10-His (serial dilution, 1 over 2 from 5 μg/mL, 6 points of dilution) diluted in HBS-EP pH7.4 was injected. Raw data were analyzed via BIA evaluation software with a blank subtraction (4-3). The kd/KD and Rmax of each scFv-human Fc for galectin-10-His was determined using the Fit Kinetics simultaneous ka/kd/Binding with mass transfer/Local Rmax on BIA evaluation software.

Binder	Kd [nM]	koff [s⁻¹]
B1	0.875	0.018
B2	0.677	0.000259
B3	1.55	0.00277
B4	0.911	0.0437
B5	1.94	0.0128
B6	1.16	0.0111
